The record followed here is US20240141072A1 (published 2024).

The term Kd denotes the constant that tells how readily two partners part at equilibrium. A low value points to a tighter complex.

Sequences and labels used below:
T1: biotinylated human DLL3 protein expressed as a human IgG1 fusion protein (human, UniProt Q9NYJ7 27-492, limits assumed, biotinylated)
T1 sequence: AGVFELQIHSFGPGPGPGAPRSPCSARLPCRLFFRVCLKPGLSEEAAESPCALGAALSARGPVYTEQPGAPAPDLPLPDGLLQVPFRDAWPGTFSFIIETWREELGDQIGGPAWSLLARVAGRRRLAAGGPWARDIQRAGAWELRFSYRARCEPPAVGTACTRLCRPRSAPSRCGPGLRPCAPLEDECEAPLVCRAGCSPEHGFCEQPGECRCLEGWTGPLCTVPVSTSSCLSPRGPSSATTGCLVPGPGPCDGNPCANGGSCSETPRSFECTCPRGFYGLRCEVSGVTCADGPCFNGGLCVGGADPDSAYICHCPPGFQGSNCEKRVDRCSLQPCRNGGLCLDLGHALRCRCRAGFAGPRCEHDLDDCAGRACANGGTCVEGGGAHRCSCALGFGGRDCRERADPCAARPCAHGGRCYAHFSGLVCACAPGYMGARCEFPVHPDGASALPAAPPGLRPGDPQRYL

B1: 2B05 anti-DLL3 trispecific protein (other)
chain: EVQLVESGGGLVQPGGSLTLSCVASGTTSSINAMGWYRRAPGKQRELVAGISSDGTKVYADSVKGRFTISRDNAKNSVYLQMNSLRAEDTAVYYCYYFHTVSGSSMRYWGQGTLVTVSS
notes: not shown: linker 1808, anti-albumin sdAb, linker 1808, anti-CD3 fragment, His6 1819
B2: 2D02 anti-DLL3 trispecific protein (other)
chain: EVQLVESGGGLVQPGGSLTLSCVASGSTSSINALGWYRRAPGKQRELVAGISSDGSLVYADSVKGRFTISRDNAKNSVYLQMNSLRAEDTAVYYCYYFRIVSGSSMRYWGQGTLVTVSS
notes: as for B1
B3: 2C02 anti-DLL3 trispecific protein (other)
chain: EVQLVESGGGLVQPGGSLTLSCVASGSTSSINAVGWYRRAPGKQRELVAGISSDGSKVYVDSVKGRFTISRDNAKNSVYLQMNSLRAEDTAVYYCYYFRTVYGSSMRYWGQGTLVTVSS
notes: as for B1
B4: 2E06 anti-DLL3 trispecific protein (other)
chain: EVQLVESGGGLVQPGGSLTLSCVASGSTSSINAMGWYRRAPGKQRELVAGISSDGSKVYASSVKGRFTISRDNAKNSVYLQMNSLRAEDTAVYYCYYFRTVRGSSMRYWGQGTLVTVSS
notes: as for B1
B5: 2F02 anti-DLL3 trispecific protein (other)
chain: EVQLVESGGGLVQPGGSLTLSCVASGSTSSINAVGWYRRAPGKQRELVAGISSDGSKVYAGSVKGRFTISRDNAKNSVYLQMNSLRAEDTAVYYCYYFRTVSGSYMRYWGQGTLVTVSS
notes: as for B1
B6: 2F06 anti-DLL3 trispecific protein (other)
chain: EVQLVESGGGLVQPGGSLTLSCVASGSTSSINAYGWYRRAPGKQRELVAGISSDGSAVYADSVKGRFTISRDNAKNSVYLQMNSLRAEDTAVYYCYYFRTHSGSSMRYWGQGTLVTVSS
notes: as for B1
B7: 2D09 anti-DLL3 trispecific protein (other)
chain: EVQLVESGGGLVQPGGSLTLSCVASGTTSSINAMGWYRRAPGKQRELAAGISSDGSKVYNDSVKGRFTISRDNAKNSVYLQMNSLRAEDTAVYYCYYFRTVRGSSMRYWGQGTLVTVSS
notes: as for B1
B8: 2C06 anti-DLL3 trispecific protein (other)
chain: EVQLVESGGGLVQPGGSLTLSCVASGSTNSINAMGWYRRAPGKQRELVAGISSDGSKVYKDSVKGRFTISRDNAKNSVYLQMNSLRAEDTAVYYCYYYRTVSGSSMRYWGQGTLVTVSS
notes: as for B1
B9: 2B07 anti-DLL3 trispecific protein (other)
chain: EVQLVESGGGLVQPGGSLTLSCVASGSTSSINAFGWYRRAPGKQRELVAGISSDGSKVYADSVKGRFTISRDNAKNSVYLQMNSLRAEDTAVYYCYYFRTVRGSSMRYWGQGTLVTVSS
notes: as for B1
B10: 2D06 anti-DLL3 trispecific protein (other)
chain: EVQLVESGGGLVQPGGSLTLSCVASGSTSSINAMGWYRRAPGKQRELVAGISSDGSKVYSDSVKGRFTISRDNAKNSVYLQMNSLRAEDTAVYYCYYFRTVSGSSSRYWGQGTLVTVSS
notes: as for B1
B11: 2D03 anti-DLL3 trispecific protein (other)
chain: EVQLVESGGGLVQPGGSLTLSCVASGKTSSINAMGWYRRAPGKQRELVAGISSDGSKVYADSVKGRFTISRDNAKNSVYLQMNSLRAEDTAVYYCYYFRTVSGVSMRYWGQGTLVTVSS
notes: as for B1
B12: 2F01 anti-DLL3 trispecific protein (other)
chain: EVQLVESGGGLVQPGGSLTLSCVASGSTSSINAMGWYRRAPGKQRELVAGISSDGSKVYSDSVKGRFTISRDNAKNSVYLQMNSLRAEDTAVYYCYYFRLVSGSSMRYWGQGTLVTVSS
notes: as for B1
B13: 2C010 anti-DLL3 trispecific protein (other)
chain: EVQLVESGGGLVQPGGSLTLSCVASGSTSKINAMGWYRRAPGKQRELVAGISSDRSKVYADSVKGRFTISRDNAKNSVYLQMNSLRAEDTAVYYCYYFRTVAGSSMRYWGQGTLVTVSS
notes: as for B1
B14: 2D05 anti-DLL3 trispecific protein (other)
chain: EVQLVESGGGLVQPGGSLTLSCVASGSTSRINAMGWYRRAPGKQRELVAGISSDGSKVYADSVKGRFTISRDNAKNSVYLQMNSLRAEDTAVYYCYYFRTASGSSMRYWGQGTLVTVSS
notes: as for B1
B15: 2E08 anti-DLL3 trispecific protein (other)
chain: EVQLVESGGGLVQPGGSLTLSCVASGSRSSINAMGWYRRAPGKQRELVAGISADGSKVYADSVKGRFTISRDNAKNSVYLQMNSLRAEDTAVYYCYYFRTQSGSSMRYWGQGTLVTVSS
notes: as for B1
B16: 2F03 anti-DLL3 trispecific protein (other)
chain: EVQLVESGGGLVQPGGSLTLSCVASGSTSSINAMAWYRRAPGKQRELAAGISSDNSKVYADSVKGRFTISRDNAKNSVYLQMNSLRAEDTAVYYCYYFRTVGGSSMRYWGQGTLVTVSS
notes: as for B1
B17: 2C07 anti-DLL3 trispecific protein (other)
chain: EVQLVESGGGLVQPGGSLTLSCVASGSTSSINAMAWYRRAPGKQRELVAGISSDGSKVYADSVKGRFTISRDNAKNSVYLQMNSLRAEDTAVYYCYYFRSVSGSSMRYWGQGTLVTVSS
notes: as for B1
B18: 2D04 anti-DLL3 trispecific protein (other)
chain: EVQLVESGGGLVQPGGSLTLSCVASGSTSSINAVGWYRRAPGKQRELVAGISSDGSKVYRDSVKGRFTISRDNAKNSVYLQMNSLRAEDTAVYYCYYFRTVQGSSMRYWGQGTLVTVSS
notes: as for B1
B19: 2B012 anti-DLL3 trispecific protein (other)
chain: EVQLVESGGGLVQPGGSLTLSCVASGTTSSINAMGWYRRAPGKQRELVAGISSDGSKVYNDSVKGRFTISRDNAKNSVYLQMNSLRAEDTAVYYCYYFRTVRGSSMRYWGQGTLVTVSS
notes: as for B1
B20: 2F07 anti-DLL3 trispecific protein (other)
chain: EVQLVESGGGLVQPGGSLTLSCVASGSTSSINAVGWYRRAPGKQRELVAGISSDGSSVYADSVKGRFTISRDNAKNSVYLQMNSLRAEDTAVYYCYYFRTVSTSSMRYWGQGTLVTVSS
notes: as for B1
B21: 2B010 anti-DLL3 trispecific protein (other)
chain: EVQLVESGGGLVQPGGSLTLSCVASGSTSSRNAMGWYRRAPGKQRELVAGISSDGSKLYLDSVKGRFTISRDNAKNSVYLQMNSLRAEDTAVYYCYYFRTVLGSSMRYWGQGTLVTVSS
notes: as for B1
B22: 2C09 anti-DLL3 trispecific protein (other)
chain: EVQLVESGGGLVQPGGSLTLSCVPSGSTSNINAMGWYRRAPGKQRELPAGISSDGTKIYADSAKVPFTITRDNAKNSVYLQMNSLRAEDTAVYYCYYFRTVSGTSMRYWGQGTLVTVSS
notes: as for B1
B23: 2C08 anti-DLL3 trispecific protein (other)
chain: EVQLVESGGGLVQPGGSLTLSCVASGSTSRINAMGWYRRAPGKQRELVAGISSDGSKVYQDSVKGRFTISRDNAKNSVYLQMNSLRAEDTAVYYCYYFRRVSGSSMRYWGQGTLVTVSS
notes: as for B1
B24: 2D010 anti-DLL3 trispecific protein (other)
chain: EVQLVESGGGLVQPGGSLTLSCVASGSTSSINAMGWYRRAPGKQRELVAGISSDGSKVYADSVKGRFTISRDNAKNSVYLQMNSLRAEDTAVYYCYYFRTKSGSSMRYWGQGTLVTVSS
notes: as for B1
B25: 2D012 anti-DLL3 trispecific protein (other)
chain: EVQLVESGGGLVQPGGSLTLSCVASGKTSSINAMGWYRRAPGKQRELVAGISSDGSKVYTDSVKGRFTISRDNAKNSVYLQMNSLRAEDTAVYYCYYFRTRSGSSMRYWGQGTLVTVSS
notes: as for B1
B26: 2D07 anti-DLL3 trispecific protein (other)
chain: EVQLVESGGGLVQPGGSLTLSCVASGSTSSINAVGWYRRAPGKQRELVAGISSDGTKVYRDSVKGRFTISRDNAKNSVYLQMNSLRAEDTAVYYCYYFRTVQGSSMRYWGQGTLVTVSS
notes: as for B1
B27: 2D011 anti-DLL3 trispecific protein (other)
chain: EVQLVESGGGLVQPGGSLTLSCVASGTTSSINAMGWYRRAPGKQRELVAGISSDGSKVYADSVKGRFTISRDNAKNSVYLQMNSLRAEDTAVYYCYYFRTVWGSSMRYWGQGTLVTVSS
notes: as for B1
B28: 2C01 anti-DLL3 trispecific protein (other)
chain: EVQLVESGGGLVQPGGSLTLSCVASGSTASINAMGWYRRAPGKQRELVAGISSDGSKVYADSVKGRFTISRDNAKNSVYLQMNSLRAEDTAVYYCYYFRYVSGSSMRYWGQGTLVTVSS
notes: as for B1
B29: 2E09 anti-DLL3 trispecific protein (other)
chain: EVQLVESGGGLVQPGGSLTLSCVASGSVSSINAMGWYRRAPGKQRELVAGISSDGSKVYASSAKGRFTISRDNAKNSVYLQMNSLRAEDTAVYYCYYFRTLSGSSMRYWGQGTLVTVSS
notes: as for B1
B30: 2B011 anti-DLL3 trispecific protein (other)
chain: EVQLVESGGGLVQPGGSLTLSCVASGNTSSINAMGWYRRAPGKQRELVAGISSDGSRVYADSVKGRFTISRDNAKNSVYLQMNSLRAEDTAVYYCYYFRTVSGSSMRSWGQGTLVTVSS
notes: as for B1

The target in this test is T1, biotinylated human DLL3 protein …. Put plainly: Octet BLI, single 50 nM. The procedure:
Using the conditioned medium with known concentrations of the anti-DLL3 trispecific proteins, the binding affinities of the anti-DLL3 trispecific proteins toward human DLL3 protein were measured using a method where biotinylated version of human DLL3 protein were expressed as a human IgG1 fusion protein, and the binding affinity measurement was carried out in an Octet instrument with streptavidin tips.
On to B1, for which the Kd is 7.4 nM.

Consider B2, for which the dissociation constant Kd was 14 nM.

Molecule B3 showed a Kd of 4.1 nM.

With B4, the Kd came out at 11 nM. Compared with the last molecule, the Kd is about 2.7-fold higher.

Turning to B5, the Kd was 9.6 nM. The Kd values of the last two molecules are within 1.5-fold of each other.

For B6, the affinity, expressed as Kd, was 10 nM.

In the case of B7, the Kd was found to be 8.2 nM.

In the case of B8, the Kd came out at 6.7 nM.

B9: the equilibrium dissociation constant (Kd) amounted to 5.7 nM.

On to B10, for which binding was characterised by a dissociation constant (Kd) of 6.6 nM.

As to B11, the Kd amounted to 6.8 nM.

Turning to B12, the dissociation constant (Kd) stood at 9.2 nM.

In turn, B13 showed a dissociation constant (Kd) of 7.6 nM.

B14 had a Kd of 8.3 nM.

The molecule B15 had a Kd of 17 nM. This Kd is about 2-fold higher than that of the molecule before.

Molecule B16 came in with a Kd of 5.9 nM.

The molecule B17 had a Kd of 6.2 nM.

B18 displayed a Kd of 6.2 nM.

B19 showed a Kd of 7.3 nM. This Kd and that of the molecule before are within 1.5-fold of each other.

B20: the Kd was 8 nM. The Kd values of the last two molecules are within 1.5-fold of each other.

B21 yielded a Kd of 10 nM.

With B22, binding was put at a Kd of 6.4 nM.

Consider B23, for which the Kd worked out at 6.1 nM. This Kd and that of the molecule before are within 1.5-fold of each other.

For B24, the equilibrium dissociation constant (Kd) was 7.3 nM.

B25 showed a Kd of 4.9 nM.

B26 showed an equilibrium dissociation constant (Kd) of 6 nM.

In turn, B27 came in with an equilibrium dissociation constant (Kd) of 5.4 nM.

Take B28: binding was put at a Kd of 12 nM.

With B29, binding was put at a Kd of 8.5 nM.

Consider B30, for which the Kd came out at 11 nM.
